Assay results from paper PMC5552905, “Mechanisms of peptide sex pheromone regulation of conjugation in Enterococcus faecalis” (MicrobiologyOpen, 2017).

B1: iCF10 (I, inhibitor peptide) (peptide)
peptide: AITLIFI
notes: source: synthetic peptide, bought: New England Peptides
B2: XBS1 DNA (dsDNA)
DNA 1: TGTTAATATTTTAATTTTAGGTATTGAATACGACACTCGAAGATGTGTTTATTAAGCTATATCCCTTTTTTTTAAAAAAAAATA
DNA 2: TATTTTTTTTTAAAAAAAAGGGATATAGCTTAATAAACACATCTTCGAGTGTCGTATTCAATACCTAAAATTAAAATATTAACA
B3: His-tagged PrgX (natural protein, Enterococcus faecalis (plasmid pCF10), UniProt Q04114 1-317, looked up)
chain: MFKIGSVLKQIRQELNYHQIDLYSGIMSKSVYIKVEADSRPISVEELSKFSERLGVNFFEILNRAGMNTKSVNETGKEKLLISKIFTNPDLFDKNFQRIEPKRLTSLQYFSIYLGYISIAHHYNIEVPTFNKTITSDLKHLYDKRTTFFGIDYEIVSNLLNVLPYEEVSSIIKPMYPIVDSFGKDYDLTIQTVLKNALTISIMNRNLKEAQYYINQFEHLKTIKNISINGYYDLEINYLKQIYQFLTDKNIDSYLNAVNIINIFKIIGKEDIHRSLVEELTKISAKEKFTPPKEVTMYYENYVAIENNPIPEIKEQS
notes: PrgX, master transcription regulator and sex pheromone receptor encoded by the Enterococcus faecalis plasmid pCF10; also called HisPrgX; Apo-PrgX
B4: PrgX‐I: PrgX/iCF10 complex (tetramer), purified by nickel affinity and size exclusion chromatography (protein)
chain 1: B3 chain
chain 2: AITLIFI
modifications: left off: His tag, end not stated, kept
B5: HisPrgX-C complex (complex)
chain 1: B3 chain
chain 2: LVTLVFV
notes: copies: 4 +
B6: HisPrgX-I complex (complex)
chain 1: B3 chain
chain 2: AITLIFI
notes: copies: 4 +
B7: PrgX‐C: PrgX/cCF10 complex (tetramer), purified by nickel affinity and size exclusion chromatography (protein)
chain 1: B3 chain
chain 2: LVTLVFV
modifications: left off: His tag, end not stated, kept
B8: cCF10 (C, clumping-inducing peptide, sex pheromone) (peptide)
peptide: LVTLVFV
notes: as for B1

Legend:
His-tagged PrgX = target: B3; experiment: SPR; settings: both partners purified
PrgX = target: T1, PrgX (Enterococcus faecalis (plasmid pCF10), UniProt Q04114 1-317); experiment: EMSA; apo (DMF); single shifted band; EMSA: 20 mM Tris-HCl pH 7.9, 0.1 M NaCl, 0.1 mM EDTA, 10% glycerol, 10 mM MgCl2, 1 ug poly-[d(A-T)], 0.1 ug poly-L-lysine, 20 ul, room temperature 15 min, 8 fmol DIG-labelled probe; settings: protein: recombinant; tags: GST removed with PreScission (pGEX6p-1); chain copies: 2; label: 3' DIG-11-ddUTP; blunt
T1 sequence: B3 chain

[1] = target: the molecule itself; experiment: SEC; Superdex 200 Hiload 16/600, 20 mmol/L Tris-HCl pH 8.0, 300 mmol/L NaCl; affinity purified HisPrgX, HisPrgX-C or HisPrgX-I loaded; calibrated with gel-filtration standards; no DNA
[2] = test system: LT DNA (XBS1 and XBS2 operator sites), P Q promoter region; assay type: binding, Enterococcus faecalis (plasmid pCF10); settings: for supershift of LT DNA by purified tetramers: SEC-purified PrgX-C or PrgX-I tetramers, LT probe containing both XBSs
Excerpt: The LT DNA template containing XBS1 and XBS2 sites (LT DNA, pCF10 sequence from nt 8029 to nt8185 (Hirt et al., 2005)) was PCR amplified from pCF10 using primers as described in. The XBS1 DNA template only has XBS1 site (pCF10 sequence 8029–8131nt) was made by annealing oligos ‐129/‐47‐F (5′[…] 3′) and −129/−47R (5′[…] 3′) to obtain double‐stranded DNA. The XBS2 DNA template only has the XBS2 site (pCF10 sequence from 8109 to 8290; −66 to +114 relative to the prgQ transcription initiation site), and was PCR amplified from pCF10 using primers as described in Caserta et al., 2012. In DNA templates with 5‐bp or 10‐bp insertions, sequence GTACC or […] was inserted between XBS1 and XBS2 sites and at a position of 6‐bp after the XBS1 site. DNA probes were labeled at the 3′‐ends with DIG‐11‐ddUTP using the DIG Gel Shift kit (Roche) by following the manufacturer's instructions. EMSA assays were performed in 20 μl reactions: DIG‐labeled DNA, purified proteins, 1 μg of poly‐[d(A‐T)], 0.1 μg of poly‐L‐lysine, 1 × reaction buffer (20 mmol L^−1 Tris‐HCl, pH 7.9, 0.1 mol L^−1 NaCl, 0.1 mmol L^−1 EDTA, 10% glycerol, 0.01 mol L^−1 MgCl2). The reactions were incubated at room temperature for 15 min and loaded onto 5% polyacrylamide gels in 1 × TBE buffer (Tris, Borate, EDTA, pH 7.9). After electrophoresis at 100 V for 1.5 h, the DNA–protein complexes and DNA probes were electrotransferred onto a nylon membrane (Roche) at 6 V for 2 h using the GENIE electrophoretic blotter (Idea Scientific). DIG‐labeled DNA fragments were visualized by an enzyme immunoassay (DIG Gel Shift Kit, Roche) following the manufacturer's instructions. […] For the experiments reported here the powdered form of the peptides were initially solubilized in pure DMF at 0.5 mg/ml, and then diluted 10‐fold in KPBS for use as a working stock solution, which was diluted into the EMSA reactions to a final peptide concentration of 40 nmol L^−1.
EMSA assays were performed using 8 fmol of digoxigenin‐labeled LT DNA probes with increasing amounts of PrgX protein. PrgX was preincubated for 5‐min at room temperature with 40 nmol L^−1 of C (a) or I (b) before adding LT DNA. PrgX concentrations: lanes 2 and 6: 38 nmol L^−1; lanes 3 and 7: 76 nmol L^−1; lanes 4 and 8: 190 nmol L^−1; lanes 5 and 9: 568 nmol L^−1. (c) Cartoon showing the predicted products formed by binding PrgX to LT DNA.

Molecule B1 has a Kd (His-tagged PrgX) of 0.152 pM and a koff (His-tagged PrgX) of 2.09e-05 s⁻¹.

B2: binds (PrgX).

With B3 the “stoichiometry N” value [1] was 2.

In the case of B4, the “relative protein concentration for supershift / singly shifted probe” value [2] is reported as “complete supershifting at slightly lower protein concentrations than PrgX/C” and the “supershift of LT DNA by purified tetramers” value [2] is reported as “nearly complete supershift to band II at extremely low PrgX concentrations”.

B5 was tested, and the “stoichiometry N” value [1] was 4.

With B6 the “stoichiometry N” value [1] was 4.

In the case of B7, the “relative protein concentration for supershift / singly shifted probe” value [2] is reported as “slightly more of the singly shifted probe is detected relative to PrgX/I complexes at equivalent protein concentrations” and the “supershift of LT DNA by purified tetramers” value [2] is reported as “nearly complete supershift to band II at extremely low PrgX concentrations”.

B8 gave a Kd (His-tagged PrgX) of 0.686 pM and a koff (His-tagged PrgX) of 5.5e-05 s⁻¹.
